The target in experiment [1] is TAG-72 antigen on a human breast carcinoma extract (human). Briefly: competition RIA against 125I-labeled CC49 IgG, human breast carcinoma extract.

trypsin (enzyme): the half-life (t1/2) of intact sFv, reverse phase HPLC in the experiment with CC49/212 single-chain Fv came to 3.26 h.

Regarding CC49/218 single-chain Fv (scFv), the fold lower affinity than the CC49/212 sFv in experiment [1] was 4 fold.

Take “subtilisin BPN' (Type XXVII protease, Sigma) (from UniProt P00782) (enzyme)”: the half-life (t1/2) of intact sFv, reverse phase HPLC with CC49/212 single-chain Fv was 2.05 h.

For the origin of these results see US5990275.
